Assay [1] has as its target GSU0105, triheme c-type cytochrome from Geobacter sulfurreducens, with C-terminal Factor Xa-cleavable His-tag (Geobacter sulfurreducens). In words: SAXS.
The target is the same in assay [2]. Description: pull-down.

Two substances from doi:10.1101/2020.11.03.367284 can be followed below.

Consider “GSU0105, triheme c-type cytochrome from Geobacter sulfurreducens, with C-terminal Factor Xa-cleavable His-tag (natural protein)”, for which the stoichiometry N (commonly the number of molecules, sites or subunits per partner or assembly) in assay [1] was found to be 4.

Consider “PpcD, triheme cytochrome c7 from Geobacter sulfurreducens (natural protein)”, for which the Kd (commonly a measure of binding affinity in units of concentration) in assay [2] was < 10 µM.
